Experimental data from patent US20240270828A1 (UAB RESEARCH FOUNDATION, published 2024).

T1: Spike of MERS-CoV on infected Vero E6 cells and live virus (MERS-CoV, UniProt K9N5Q8 18-1353)
T1 sequence: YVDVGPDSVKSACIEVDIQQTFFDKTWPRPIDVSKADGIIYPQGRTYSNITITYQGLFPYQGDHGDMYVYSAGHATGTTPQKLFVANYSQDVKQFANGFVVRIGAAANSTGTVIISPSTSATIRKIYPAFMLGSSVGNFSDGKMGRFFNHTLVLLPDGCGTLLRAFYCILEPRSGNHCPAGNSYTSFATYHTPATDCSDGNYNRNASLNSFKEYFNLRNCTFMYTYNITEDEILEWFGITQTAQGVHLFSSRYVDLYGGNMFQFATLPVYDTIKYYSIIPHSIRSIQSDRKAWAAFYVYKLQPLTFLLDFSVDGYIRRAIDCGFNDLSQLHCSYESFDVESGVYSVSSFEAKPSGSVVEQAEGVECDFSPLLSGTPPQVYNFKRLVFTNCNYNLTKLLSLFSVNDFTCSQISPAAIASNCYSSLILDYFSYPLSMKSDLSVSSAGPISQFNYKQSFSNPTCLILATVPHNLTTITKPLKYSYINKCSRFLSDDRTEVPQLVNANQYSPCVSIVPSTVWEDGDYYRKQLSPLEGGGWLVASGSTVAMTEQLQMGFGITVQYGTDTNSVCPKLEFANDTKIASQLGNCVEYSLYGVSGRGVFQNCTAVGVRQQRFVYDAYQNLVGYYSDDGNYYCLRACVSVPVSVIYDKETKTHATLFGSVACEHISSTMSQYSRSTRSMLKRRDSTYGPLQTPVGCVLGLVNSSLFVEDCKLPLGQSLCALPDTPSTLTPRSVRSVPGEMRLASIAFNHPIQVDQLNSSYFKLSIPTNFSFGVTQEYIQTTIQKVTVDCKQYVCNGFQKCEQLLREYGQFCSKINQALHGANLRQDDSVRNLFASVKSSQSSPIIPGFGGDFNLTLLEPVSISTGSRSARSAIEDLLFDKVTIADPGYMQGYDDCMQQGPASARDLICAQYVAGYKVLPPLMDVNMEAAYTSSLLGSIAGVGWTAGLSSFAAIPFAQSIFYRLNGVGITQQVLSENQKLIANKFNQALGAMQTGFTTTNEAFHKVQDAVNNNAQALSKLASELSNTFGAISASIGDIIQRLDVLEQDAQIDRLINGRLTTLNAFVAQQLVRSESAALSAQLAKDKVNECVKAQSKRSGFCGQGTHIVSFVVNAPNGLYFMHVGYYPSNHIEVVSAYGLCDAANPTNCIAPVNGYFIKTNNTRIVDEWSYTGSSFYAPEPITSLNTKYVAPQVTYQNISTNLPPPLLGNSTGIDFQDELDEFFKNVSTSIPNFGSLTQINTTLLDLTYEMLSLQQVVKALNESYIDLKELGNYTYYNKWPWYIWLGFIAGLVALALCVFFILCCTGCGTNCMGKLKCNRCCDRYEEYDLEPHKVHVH

B1: 1250D2 (antibody, V domains shown)
VH: QVQLVQSGAEVKKPGASMKVSCKASGFTFSDYYMHWVRQAPRQGLEWMGLINPSGSGTAYAQNFQGRVTLTRDTSTSTLYMEMGSLTSDDTAVYYCARMDSSGSYDHWGQGTLVTVSS
VL: EIVLTQSPGTLSLSPGDRATLSCRASQTIRISYLAWYQQKPGQAPRLLVYGPSIRATGIPDRFSASGSGTDFTLTISRLEPEDFAVYYCQHYGSSPPRYTFGQGTKLEIK
notes: Recombinant human IgG1
B2: 1232D5 (antibody, V domains shown)
VH: EVQLVESGGGVVQPGGSLRLSCAASGFTFSNYGMHWVRQAPSKGLEWVAFIRYDGTNKYYADSVKGRFTISRDNSKNTLYLQINSLRAEDTAVYYCAIIAVAGDVNPDYWGQGTLVTVSS
VL: not shown
B3: 1242F4 (antibody, V domains shown)
VH: EVQLVQSGAEVKKPGTSVKVSCKASGNTVADYYMHWVRQAPRQGLEWVGLINPSGSGTAYAQNFQGRVTLTRDTSTSTLYMELGSLGSEDTAIYYCARMDSSGTYDVWGQGTLVTVSS
VL: EIVLTQSPGTLSLSPGERATLSCRASQSIRSGYLAWYQQKPGQAPRLLIRGASVKATGIPDRFSGSGSGTDFTLTISRLEPEDFVVYYCQHFASSPPRYTFGQGTKLEIK
notes: Recombinant human IgG1
B4: 1242F11 (antibody, V domains shown)
VH: QVQLVQSGGGLVQPGGSLRLSCAASGFTFSSYWMTWVRQAPGKGLEWVANIKQDGREIYYVDSVKGRFTLSRDNAKNSLYLQMNSLRAEDTAVFYCARIRVFVSADSEGYHYYYGLDVWGQGTTVTVSP
VL: not shown
B5: 1242G6 (antibody, V domains shown)
VH: QVQLVQSGGGVVQPGTSVRLSCAASGFTFSDHGMHWVRQAPGKGLEWVAVISFEGRNKFFADSVKGRSTISRDNSKNTVSMQVDNVRPEDTAVYYCAREHFDGSGSDYIGTRFFDYWGRGALVTVSS
VL: DIQLTQSPSFLSASVGDRVTITCRASQGISHYLTWYQQKPGKAPKLLIYRTSTLQSGVPSRFSGSGSGTVFTLTISSLQPEDLATYYCQHLDNFPTITFGQGTRLDLK
notes: Recombinant human IgG1
B6: 1242D11 (antibody, V domains shown)
VH: QVQLVQSGGGLVQPGGSLRLSCAVSGFTFSSYWMSWVRQAPGKGLEWVANIKQDGSEKYYVDSVKGRFTISRDNAKNSLFLQMNSLRAEDTAVYYCAREAVGYYYDSRGYHYSWYFDLWGRGTLVTVSS
VL: EIVLTQSPGTLSLSPGERATLSCRASQSVSSSYLVWYQQKPGQAPRLLIFGASSRATGIPDRFSGSGSGTDFTLTISSLEPEDFAVYYCQHYGSSPPMYTFGQGTKLEIK
B7: 1212C2 (antibody, V domains shown)
VH: QVQLVQSGAEVKKPGASVKVSCKASGYIFTDYFIHWVRQAPGQGLEWMGWINPNSGGTKYAQKFQGRVTMTRDTSISTVYMELSRLRSDDTAVHYCTRDLPLRTLYDSYGFDSWGQGTLVTVSS
VL: LPVLTQPASVSGSPGQSITISCTGTSSDVGSYNLVSWYQQHPGKAPKLMIYDVSKRPSGVSNRFSGSKSGNTASLTISGLQAEDEADYYCCSYAGNSIVFFGGGTKLTVL
B8: 1246C2 (antibody, V domains shown)
VH: QVQLVQSGGGLVKPGGSLRLSCAASGFTFKTHNMIWVRQAPGKVLEWVSSISGSSSYRYYGDSMKGRLTISRDNAKNSLYLEMNSLRAEDTAVYYCARDKGVGPTMVWYFDLWGRGTLVTVSS
VL: EIVLTQSPATLSLSPGDRATLSCRASQSLSISLAWYQQKPGQAPRLLIYDASIRATGVPPRFSGSGSGTDFTLTISSLEPEDFAVYYCQQWSGWPPRLTFGGGTKVEIK
B9: 1246H7 (antibody, V domains shown)
VH: QVQLQQSGPGLMKPSETLSLTCTVSGGSISSSSYYWGWIRQPPGKGLEWIGSIYYSGATYYNPSLKSRVTISVDTSKNQLSLKLSSVTAADTAVYYCVNRYYDYVWGSWGVDCWGQGTLVTVSS
VL: QAGLTQPRSVSGSPGQSVTISCTGTSSDVGGYNYVSWYQQHPGKAPKLMIYDVNKRPSGVPDRFSGSKSGNTASLTISGLQAEDEADYFCCSYAGSYTYWVFGGGTKLTVL
B10: 1250E10 (antibody, V domains shown)
VH: EVQLVQSGAEVKKPGASVKFSCKASGFRVDGSYMHWVRQAPRGGLEWMGLINPSGSGTAYAQIFQGRVTLTRDTSTSTLYMELGSLGSEDTAMYYCARMDRSGSYDLWGQGTLVIVSS
VL: DIVLTQSPGNLSLSPGERATLSCRASESIRSAYIAWYQQKPGQAPRLLMRGASVRAAGIPDRFSGSGSGTDYALTISRLEPEDFAVYYCQHFASSPPRYTFGQGTKLEIK
notes: Recombinant human IgG1
B11: 1235C10 (antibody, V domains shown)
VH: EVQLVESGGGLVQPGRSLRLSCTASGFTFGDHSMSWVRQAPGKGLEWVGFIRSKAYGGTTEYAASVKGRFTISRDDSKSIAYLQMNSLKIEDTAVYYCTRGLTGLDYWGQGMLVTVSS
VL: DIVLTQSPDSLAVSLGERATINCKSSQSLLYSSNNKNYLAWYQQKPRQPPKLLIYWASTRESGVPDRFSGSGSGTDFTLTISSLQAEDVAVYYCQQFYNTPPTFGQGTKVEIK
notes: Recombinant human IgG1

Columns and labels:
[1] = biological target: T2, SARS-CoV-2 S2 (40590-V08B, Sino Biological) (SARS-CoV-2, UniProt P0DTC2 686-1213); test: ELISA, hmAb at 10 and 1 ug/ml in duplicate; AUC
T2 construct: domain: S2

[2] = biological target: T3, SARS-CoV-2 S1 (40591-V08H3, Sino Biological) (SARS-CoV-2, UniProt P0DTC2 16-685); test: ELISA, hmAb at 10 and 1 ug/ml in duplicate; AUC
T3 construct: domain: S1

[3] = biological target: T4, SARS-CoV-2 S1+S2 (40589-V08B1, Sino Biological) (SARS-CoV-2, UniProt P0DTC2 16-1213); test: ELISA, hmAb at 10 and 1 ug/ml in duplicate; AUC
[4] = biological target: Spike of SARS-CoV (Urbani) on infected Vero E6 cells and live virus (SARS-CoV, UniProt P59594 14-1255); test: immunofluorescence on infected Vero E6 cells, 1 µg/ml
[5] = biological target: T1, Spike of MERS-CoV on infected Vero E6 …; test: as above
[6] = biological target: T2, SARS-CoV-2 S2 (40590-V08B, Sino …); test: ELISA on coated protein, anti-human IgG-HRP; AUC of the OD
[7] = biological target: T3, SARS-CoV-2 S1 (40591-V08H3, Sino …); test: as above
[8] = biological target: T4, SARS-CoV-2 S1+S2 (40589-V08B1, Sino …); test: as above
[9] = biological target: Spike of live SARS-CoV-2 WT virus (SARS-CoV-2, UniProt P0DTC2 14-1273); test: cell-based or functional assay

Binder | Binding AUC [1] | Binding AUC [2] | binding result [2] | Binding AUC [3] | binding result [4] | binding result [5] | Binding AUC [6] | Binding AUC [7] | Binding AUC [8] | Neutralization IC50 (µg/ml), Live Virus WT [9] | binding result [7]
B1 | 28.2 | 1.7 | no binding (tested: 10 ug/ml) | 25.3 | binds | binds | 28.2 | 1.7 | 25.3 | 2.36 µg/mL | 
B2 |  | 1.1 |  | 11.7 |  |  |  | 1.1 | 11.7 |  | no binding
B3 | 28.5 | 1.3 | no binding (tested: 10 ug/ml) | 27 | binds | binds | 28.5 | 1.3 | 27 | 36.5 µg/mL | 
B4 |  |  |  |  |  |  |  | 1.9 | 24.1 |  | 
B5 | 22.6 | 3.8 |  | 24.3 |  |  | 22.6 | 3.8 | 24.3 | > 50 µg/mL | no binding
B6 | 24.4 | 2.9 |  | 21.4 |  |  | 24.4 | 2.9 | 21.4 |  | no binding
B7 |  |  |  |  |  |  |  |  |  | 0.003 µg/mL | 
B8 | 17.4 | 4.2 | no binding (tested: 10 ug/ml) | 18 |  |  | 17.4 | 4.2 | 18 | > 50 µg/mL | 
B9 | 4.8 | 1.7 |  | 5 |  |  | 4.8 | 1.7 | 5 |  | no binding
B10 | 27.9 | 2.9 | no binding (tested: 10 ug/ml) | 26 |  |  | 27.9 | 2.9 | 26 | > 50 µg/mL | 
B11 | 26.9 | 0.8 | no binding (tested: 10 ug/ml) | 25.2 |  |  | 26.9 | 0.8 | 25.2 | 10.4 µg/mL | 
